Target: azide-labeled Aβ (14–23) peptide
Assay: AFM force spectroscopy

In the case of azide-labeled Aβ (14–23) peptide, the rupture force, dimer of neighbouring peptides (two-peak curves, peaks close) is reported as 44 pN, the rupture force, dimer of peptides 1 and 3 (two-peak curves, peaks far) is reported as 37 pN and the rupture force, monomer from the trimer (peak 1) is reported as 48 pN. The rupture force, monomer from the trimer (peak 1), second experiment was 44 pN, the rupture force, remaining dimer to monomers (peak 2) was 53 pN and the rupture force, remaining dimer to monomers (peak 2), second experiment was 50 pN. The stoichiometry N was 3.

From PMC6093788
